Common to all, as to assay: cell-based or functional assay
In experiment [1] the target is T1, human GIP receptor (human) (UniProt P48546).
T1 sequence (looked up): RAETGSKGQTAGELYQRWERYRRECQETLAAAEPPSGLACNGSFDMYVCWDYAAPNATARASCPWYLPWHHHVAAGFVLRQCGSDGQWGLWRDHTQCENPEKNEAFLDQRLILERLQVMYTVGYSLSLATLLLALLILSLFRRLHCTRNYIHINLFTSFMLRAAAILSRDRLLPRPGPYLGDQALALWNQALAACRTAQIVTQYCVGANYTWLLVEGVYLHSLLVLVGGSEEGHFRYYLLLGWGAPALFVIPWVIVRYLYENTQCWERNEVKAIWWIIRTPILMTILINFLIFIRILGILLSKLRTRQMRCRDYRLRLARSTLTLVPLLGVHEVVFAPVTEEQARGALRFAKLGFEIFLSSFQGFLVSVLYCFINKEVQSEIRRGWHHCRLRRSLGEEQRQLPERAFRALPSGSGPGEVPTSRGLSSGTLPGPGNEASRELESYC

For experiment [2], the target named is T2, human calcitonin receptor (human) (UniProt P30988).
T2 sequence (looked up): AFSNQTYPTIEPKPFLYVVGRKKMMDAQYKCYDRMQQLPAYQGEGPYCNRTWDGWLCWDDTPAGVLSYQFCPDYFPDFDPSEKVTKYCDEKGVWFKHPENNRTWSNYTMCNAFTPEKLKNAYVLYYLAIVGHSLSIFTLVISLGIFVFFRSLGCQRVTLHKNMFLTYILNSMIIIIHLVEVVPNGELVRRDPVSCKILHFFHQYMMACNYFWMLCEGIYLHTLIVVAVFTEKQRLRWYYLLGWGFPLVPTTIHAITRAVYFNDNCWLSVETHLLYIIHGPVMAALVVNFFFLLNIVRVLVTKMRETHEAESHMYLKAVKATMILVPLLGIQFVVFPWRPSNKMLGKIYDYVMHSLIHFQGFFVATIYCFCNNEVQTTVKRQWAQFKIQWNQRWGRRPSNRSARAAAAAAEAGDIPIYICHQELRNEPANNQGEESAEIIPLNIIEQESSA

The next experiment addresses Human GLP-1R (Homo sapiens, UniProt P43220).

As for GIP (peptide), the EC50 (nM), cell-based cAMP assay, CHO-K1 cells in experiment [1] was 0.075 nM.
Turning to Calcitonin (peptide), the EC50 (nM), cell-based cAMP assay, CHO-K1 cells in experiment [2] was determined as 0.026 nM.
Substance “Exendin-4 (from UniProt P26349 48-86) (peptide)” displayed an EC50 (nM), cell-based cAMP assay, CHO-K1 cells with Human GLP-1R of 0.002 nM.
